Experimental data taken from the supplement of paper PMC10065799, “High-throughput profiling of sequence recognition by tyrosine kinases and SH2 domains using bacterial peptide display” (eLife, 2023).

Legend:
[1] = target: c-Src SH2; experiment: SH2 binding enrichment of the phosphorylated peptide, bacterial display (enrichment ratio); higher = better substrate or ligand; peptides without Tyr show the background
[2] = target: Grb2 SH2 (UniProt P62993); experiment: as above
[3] = target: SHP2-C SH2; experiment: as above
[4] = target: MERTK (UniProt Q12866); experiment: phosphorylation enrichment, bacterial display (enrichment ratio); higher = better substrate or ligand; peptides without Tyr show the background
[5] = target: Hck (UniProt P08631); experiment: as above
[6] = system: AncSZ; experiment: as above
[7] = target: EPHB2 (UniProt P29323); experiment: as above
[8] = system: c-Abl (mouse); experiment: as above
[9] = target: Fyn (UniProt P06241); experiment: as above
[10] = system: c-Src; experiment: as above
[11] = target: Jak2 (UniProt O60674); experiment: as above
[12] = target: EPHB1 (UniProt P54762); experiment: as above
[13] = target: FGFR3 (UniProt P22607); experiment: as above
[14] = target: FGFR1 (UniProt P11362); experiment: as above
[15] = target: Fes (UniProt P07332); experiment: as above
[16] = system: Fer (mouse); experiment: as above
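For SH2 binding enrichment of the phosphorylated peptide, bacterial display in this document: peptide library displayed on the E. coli surface as eCPX fusions, selected cells deep-sequenced, score is each peptide's frequency after selection divided by its frequency in the input.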
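For phosphorylation enrichment, bacterial display in this document: 11-residue human phosphosite peptides and single-mutation variants displayed on the E. coli surface, counted by deep sequencing, each peptide's frequency after selection divided by its frequency in the unselected input library; frequency after pTyr selection over input frequency; kinase dosed for 20-30% of maximal phosphorylation in three min.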

Sequence of Grb2 SH2 (P62993 whole entry, looked up): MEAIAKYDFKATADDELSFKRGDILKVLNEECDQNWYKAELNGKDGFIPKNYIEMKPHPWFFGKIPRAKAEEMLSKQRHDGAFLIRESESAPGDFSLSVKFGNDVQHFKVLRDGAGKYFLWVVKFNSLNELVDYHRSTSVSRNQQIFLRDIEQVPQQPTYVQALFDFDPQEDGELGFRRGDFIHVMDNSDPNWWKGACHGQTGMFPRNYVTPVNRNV
Sequence of FGFR1 (P11362 whole entry, looked up): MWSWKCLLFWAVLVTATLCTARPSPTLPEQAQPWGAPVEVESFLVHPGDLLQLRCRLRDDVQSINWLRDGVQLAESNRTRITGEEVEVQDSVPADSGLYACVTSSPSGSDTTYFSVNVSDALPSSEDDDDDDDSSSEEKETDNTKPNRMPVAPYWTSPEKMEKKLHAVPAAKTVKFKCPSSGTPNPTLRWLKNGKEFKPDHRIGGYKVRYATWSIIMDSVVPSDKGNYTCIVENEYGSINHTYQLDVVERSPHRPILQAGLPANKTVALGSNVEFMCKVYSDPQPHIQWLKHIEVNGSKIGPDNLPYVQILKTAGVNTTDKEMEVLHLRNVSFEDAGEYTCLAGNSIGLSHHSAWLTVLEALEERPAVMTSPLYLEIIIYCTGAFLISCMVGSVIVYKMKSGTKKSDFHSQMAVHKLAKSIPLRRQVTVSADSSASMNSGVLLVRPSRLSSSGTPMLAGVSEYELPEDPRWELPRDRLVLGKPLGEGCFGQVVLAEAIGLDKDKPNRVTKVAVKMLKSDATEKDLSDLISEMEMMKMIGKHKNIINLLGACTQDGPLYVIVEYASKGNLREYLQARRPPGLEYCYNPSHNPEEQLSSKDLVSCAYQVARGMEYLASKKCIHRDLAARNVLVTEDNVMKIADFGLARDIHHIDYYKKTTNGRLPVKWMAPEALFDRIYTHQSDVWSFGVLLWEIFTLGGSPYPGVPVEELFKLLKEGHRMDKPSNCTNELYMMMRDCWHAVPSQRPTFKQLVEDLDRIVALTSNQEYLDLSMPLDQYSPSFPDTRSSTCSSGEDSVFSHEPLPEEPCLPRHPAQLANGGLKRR
Sequence of EPHB2 (P29323 whole entry, looked up): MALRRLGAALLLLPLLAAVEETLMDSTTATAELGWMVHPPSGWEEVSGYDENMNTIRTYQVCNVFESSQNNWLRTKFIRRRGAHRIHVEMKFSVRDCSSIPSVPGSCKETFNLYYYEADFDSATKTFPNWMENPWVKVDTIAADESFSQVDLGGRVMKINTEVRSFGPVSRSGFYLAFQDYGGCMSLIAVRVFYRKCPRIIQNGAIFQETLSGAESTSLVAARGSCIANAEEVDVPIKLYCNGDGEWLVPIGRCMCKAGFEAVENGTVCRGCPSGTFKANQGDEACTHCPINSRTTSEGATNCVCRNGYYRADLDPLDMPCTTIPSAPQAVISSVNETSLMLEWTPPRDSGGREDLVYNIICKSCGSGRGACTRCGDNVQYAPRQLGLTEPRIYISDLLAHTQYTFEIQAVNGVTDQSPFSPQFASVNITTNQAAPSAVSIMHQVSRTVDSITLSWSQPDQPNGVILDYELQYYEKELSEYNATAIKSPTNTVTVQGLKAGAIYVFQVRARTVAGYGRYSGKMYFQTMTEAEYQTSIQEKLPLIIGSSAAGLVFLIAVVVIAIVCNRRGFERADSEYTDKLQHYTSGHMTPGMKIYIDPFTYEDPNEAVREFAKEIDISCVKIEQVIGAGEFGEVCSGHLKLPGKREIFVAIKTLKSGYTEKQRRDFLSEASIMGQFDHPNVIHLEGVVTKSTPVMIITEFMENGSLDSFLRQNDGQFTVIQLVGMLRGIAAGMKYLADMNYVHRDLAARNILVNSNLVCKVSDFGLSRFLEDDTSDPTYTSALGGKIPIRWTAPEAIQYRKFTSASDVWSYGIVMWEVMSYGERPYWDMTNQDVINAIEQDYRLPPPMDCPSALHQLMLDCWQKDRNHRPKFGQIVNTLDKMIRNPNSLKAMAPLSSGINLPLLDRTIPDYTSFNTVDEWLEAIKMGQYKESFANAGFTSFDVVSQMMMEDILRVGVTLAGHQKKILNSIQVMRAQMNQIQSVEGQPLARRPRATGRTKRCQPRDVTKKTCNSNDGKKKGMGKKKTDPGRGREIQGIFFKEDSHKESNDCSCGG
Sequence of FGFR3 (P22607 whole entry, looked up): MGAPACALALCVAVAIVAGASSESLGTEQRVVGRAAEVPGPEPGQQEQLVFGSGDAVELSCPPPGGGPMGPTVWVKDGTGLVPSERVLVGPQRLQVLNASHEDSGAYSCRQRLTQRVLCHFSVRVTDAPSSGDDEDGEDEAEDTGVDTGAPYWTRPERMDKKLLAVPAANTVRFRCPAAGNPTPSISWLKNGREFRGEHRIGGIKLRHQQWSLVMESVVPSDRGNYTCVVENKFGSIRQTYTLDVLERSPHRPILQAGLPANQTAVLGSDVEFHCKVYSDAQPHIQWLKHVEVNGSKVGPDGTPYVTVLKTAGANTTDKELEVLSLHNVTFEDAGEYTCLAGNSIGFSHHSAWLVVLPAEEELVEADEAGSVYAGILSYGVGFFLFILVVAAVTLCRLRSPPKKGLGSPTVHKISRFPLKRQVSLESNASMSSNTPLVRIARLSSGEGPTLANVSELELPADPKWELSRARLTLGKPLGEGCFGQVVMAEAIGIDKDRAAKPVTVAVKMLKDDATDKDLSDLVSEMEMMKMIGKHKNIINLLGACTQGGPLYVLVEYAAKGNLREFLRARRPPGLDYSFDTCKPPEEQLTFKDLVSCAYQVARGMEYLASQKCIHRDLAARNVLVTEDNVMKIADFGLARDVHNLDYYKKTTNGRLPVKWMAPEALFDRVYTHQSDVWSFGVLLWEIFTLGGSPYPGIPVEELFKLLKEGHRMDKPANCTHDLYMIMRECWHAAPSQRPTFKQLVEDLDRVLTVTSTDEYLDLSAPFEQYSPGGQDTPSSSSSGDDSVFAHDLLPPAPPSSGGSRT
Sequence of Fes (P07332 whole entry, looked up): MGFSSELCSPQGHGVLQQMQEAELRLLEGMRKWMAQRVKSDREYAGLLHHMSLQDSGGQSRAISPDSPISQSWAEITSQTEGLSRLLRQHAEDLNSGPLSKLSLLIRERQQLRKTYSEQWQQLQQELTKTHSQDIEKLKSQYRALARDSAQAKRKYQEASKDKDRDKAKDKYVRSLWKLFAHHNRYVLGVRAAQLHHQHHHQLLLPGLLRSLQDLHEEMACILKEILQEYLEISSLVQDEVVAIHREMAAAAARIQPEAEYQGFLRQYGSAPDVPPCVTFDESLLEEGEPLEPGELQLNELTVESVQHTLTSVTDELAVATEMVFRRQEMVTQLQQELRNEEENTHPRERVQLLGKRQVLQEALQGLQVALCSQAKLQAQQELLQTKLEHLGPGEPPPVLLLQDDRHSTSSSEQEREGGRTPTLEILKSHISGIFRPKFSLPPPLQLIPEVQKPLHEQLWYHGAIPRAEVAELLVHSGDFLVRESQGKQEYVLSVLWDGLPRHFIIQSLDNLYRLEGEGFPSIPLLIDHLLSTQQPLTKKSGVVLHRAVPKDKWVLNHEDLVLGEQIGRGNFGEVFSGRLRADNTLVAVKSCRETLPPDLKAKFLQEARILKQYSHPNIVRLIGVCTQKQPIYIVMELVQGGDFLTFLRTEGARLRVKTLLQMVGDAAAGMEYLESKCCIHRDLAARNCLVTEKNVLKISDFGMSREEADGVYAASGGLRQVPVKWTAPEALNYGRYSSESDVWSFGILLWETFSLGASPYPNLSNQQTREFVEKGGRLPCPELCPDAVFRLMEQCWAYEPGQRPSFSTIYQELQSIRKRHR
Sequence of MERTK (Q12866 whole entry, looked up): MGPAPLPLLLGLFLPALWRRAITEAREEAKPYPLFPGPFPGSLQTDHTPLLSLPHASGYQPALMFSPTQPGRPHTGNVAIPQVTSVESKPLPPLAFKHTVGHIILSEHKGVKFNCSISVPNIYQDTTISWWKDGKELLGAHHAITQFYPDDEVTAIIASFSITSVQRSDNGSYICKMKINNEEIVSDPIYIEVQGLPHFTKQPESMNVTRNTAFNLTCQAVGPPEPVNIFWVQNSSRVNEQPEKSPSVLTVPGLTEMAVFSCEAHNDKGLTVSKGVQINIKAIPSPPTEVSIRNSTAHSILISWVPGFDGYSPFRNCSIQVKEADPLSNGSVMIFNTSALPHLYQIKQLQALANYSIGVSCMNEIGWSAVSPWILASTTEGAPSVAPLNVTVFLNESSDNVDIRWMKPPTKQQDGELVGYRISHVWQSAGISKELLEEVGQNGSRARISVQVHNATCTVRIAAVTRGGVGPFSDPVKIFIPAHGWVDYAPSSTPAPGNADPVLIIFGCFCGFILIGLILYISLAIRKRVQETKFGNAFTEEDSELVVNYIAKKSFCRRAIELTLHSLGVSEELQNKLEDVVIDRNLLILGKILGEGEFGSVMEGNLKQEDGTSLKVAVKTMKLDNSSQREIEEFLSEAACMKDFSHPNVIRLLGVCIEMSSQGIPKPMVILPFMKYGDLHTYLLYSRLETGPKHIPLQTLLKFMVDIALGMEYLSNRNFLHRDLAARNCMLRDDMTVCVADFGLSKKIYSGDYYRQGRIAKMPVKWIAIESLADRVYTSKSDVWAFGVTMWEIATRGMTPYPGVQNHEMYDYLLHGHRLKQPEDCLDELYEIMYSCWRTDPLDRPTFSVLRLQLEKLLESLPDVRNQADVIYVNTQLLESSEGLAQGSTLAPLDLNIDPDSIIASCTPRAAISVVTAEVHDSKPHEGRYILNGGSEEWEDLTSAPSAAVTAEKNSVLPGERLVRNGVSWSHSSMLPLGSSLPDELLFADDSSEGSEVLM

Sequence | SH2 binding enrichment [1] | SH2 binding enrichment [2] | SH2 binding enrichment [3] | phosphorylation enrichment [4] | phosphorylation enrichment [5] | phosphorylation enrichment [6] | phosphorylation enrichment [7] | phosphorylation enrichment [8] | phosphorylation enrichment [9] | phosphorylation enrichment [10] | phosphorylation enrichment [11] | phosphorylation enrichment [12] | phosphorylation enrichment [13] | phosphorylation enrichment [14] | phosphorylation enrichment [15] | phosphorylation enrichment [16]
ILGRTYYVNHE [NEDD4_Y627] | 1.41 | 6.67 | 2.73 | 0.368 | 0.632 | 0.928 | 0.539 | 0.725 | 0.368 | 0.68 | 0.705 | 0.607 | 0.682 | 0.485 | 0.941 | 0.507
SLALFYRNVYH [RBL1_Y792_K794N] | 0.446 | 0.743 | 0.566 | 0.382 | 0.524 | 0.923 | 0.433 | 0.576 | 0.419 | 0.381 | 0.869 | 0.511 | 0.741 | 0.603 | 1.25 | 0.45
LASSEYPVQRR [GALK1_Y236_R239Q] | 0.256 | 1.16 | 0.794 | 0.554 | 0.761 | 0.732 | 0.308 | 1.03 | 1.07 | 0.707 | 1.06 | 0.381 | 1.17 | 0.58 | 1.32 | 0.981
NNHGNYIVLLG [ETFDH_Y172_R175L] | 0.587 | 0.983 | 1.14 | 1.66 | 0.433 | 0.979 | 3.86 | 0.644 | 0.458 | 0.522 | 0.833 | 7.55 | 1.71 | 2.81 | 0.902 | 0.363
CTTIHYNSMCN [TP53_Y234_Y236S] | 2.42 | 1.01 | 1.06 | 0.42 | 0.561 | 0.849 | 0.645 | 0.544 | 0.464 | 0.396 | 0.603 | 0.514 | 0.627 | 0.486 | 0.905 | 0.467
VMSMNYRVGAL [BCHE_Y174_V170M] | 0.461 | 0.719 | 0.775 | 0.416 | 0.447 | 0.767 | 0.592 | 0.686 | 0.462 | 0.484 | 0.715 | 0.578 | 0.573 | 0.485 | 0.878 | 0.438
DDSSAYRSVDE [BCKDHA_Y345] | 0.886 | 0.794 | 0.765 | 0.485 | 0.553 | 1.16 | 0.528 | 1.01 | 0.547 | 0.568 | 1.12 | 0.671 | 0.707 | 0.569 | 1.29 | 0.721
HEKKAYAFCGT [RPS6KA3_Y226_S227A] | 0.721 | 1.04 | 0.888 | 0.458 | 0.63 | 0.654 | 0.46 | 0.649 | 0.54 | 0.498 | 0.516 | 0.561 | 0.581 | 0.751 | 0.887 | 0.46
NQDRTYFESVR [SPEN_Y632_YF] | 0.555 | 0.886 | 0.727 | 0.469 | 0.573 | 0.852 | 0.617 | 0.618 | 0.571 | 0.678 | 0.865 | 0.507 | 0.69 | 0.602 | 0.931 | 0.665
SCTFTYLLGDR [ETHE1_Y38] | 0.588 | 0.83 | 0.729 | 0.409 | 0.404 | 1.11 | 0.56 | 0.604 | 0.491 | 0.515 | 0.921 | 0.491 | 0.575 | 0.446 | 1.2 | 0.426
LGLTVYADCLA [ABCA4_Y2063] | 0.564 | 0.918 | 0.553 | 0.369 | 0.515 | 1.14 | 0.657 | 0.815 | 0.589 | 0.473 | 0.992 | 0.686 | 0.78 | 0.618 | 1.39 | 0.584
KVALPYKPFFF [POLE_Y100_YF] | 1.12 | 1.3 | 1.28 | 0.41 | 0.557 | 0.743 | 0.715 | 0.656 | 0.44 | 0.547 | 0.674 | 0.42 | 0.537 | 0.375 | 0.855 | 0.455
VEYAKYGSLRG [RET_Y809] | 0.583 | 0.461 | 2.61 | 0.473 | 0.758 | 0.544 | 0.409 | 0.824 | 1.21 | 1.56 | 0.335 | 0.441 | 0.47 | 0.349 | 0.552 | 0.395
FLNSIYQSRDE [ROS1_Y2227_K2228Q] | 0.361 | 0.789 | 0.74 | 0.489 | 4.33 | 0.743 | 0.441 | 0.775 | 4.07 | 4.63 | 0.791 | 0.533 | 0.785 | 0.353 | 0.764 | 0.548
SNVEQYQAMVT [TPR_Y965] | 0.688 | 0.754 | 0.411 | 0.355 | 0.424 | 0.754 | 0.444 | 0.487 | 0.506 | 0.384 | 0.846 | 0.443 | 0.541 | 0.416 | 0.692 | 0.457
AKQVGYENAGT [PC_Y304] | 1.19 | 4.11 | 0.646 | 0.432 | 0.464 | 0.633 | 0.446 | 0.447 | 0.439 | 0.433 | 0.467 | 0.511 | 0.549 | 0.394 | 0.614 | 0.461
